Results published in patent publication US20220098287A1.

Experiments:
[1] = molecular target: human α-CGRP V32A (25-37) (human); experiment: SPR (Biacore), 25 °C, Fab over peptide on SA chip; KD of mutant over KD of parent 25-37
[2] = molecular target: human α-CGRP G33A (25-37) (human); experiment: as above
[3] = molecular target: human α-CGRP T30A (25-37) (human); experiment: as above
[4] = molecular target: human α-CGRP P29A (25-37) (human); experiment: as above
[5] = molecular target: human α-CGRP F37A (25-37) (human); experiment: as above
[6] = molecular target: human α-CGRP S34A (25-37) (human); experiment: as above
[7] = molecular target: human α-CGRP N31A (25-37) (human); experiment: as above
[8] = molecular target: human α-CGRP K35A (19-37) (human); experiment: SPR (Biacore), 25 °C, Fab over peptide on SA chip; KD of mutant over KD of parent 19-37

KD (mutant/parent) [1]: 41 | KD (mutant/parent) [2]: 1260 | KD (mutant/parent) [3]: 7 | KD (mutant/parent) [4]: 26 | KD (mutant/parent) [5]: 3600 | KD (mutant/parent) [6]: 69 | KD (mutant/parent) [7]: 9 | KD (mutant/parent) [8]: 4
Substance: murine anti-CGRP monoclonal antibody 7E9, Fab fragment
